According to a protein production outcome set (Wang et al. 2014):

Test: label from the status in PepcDB records

## SLNEGQEMEEQFALLLETLKNQQMNEFRELFLALHIYEQGQFYQSLDEKDRQHLYNYLSPKELADMFDVIEEDNENMKDYLAEMRPSYAADMLAEMYTDNAVDLLNMLDKSQKAKYLSLLSSEEAGEIKELLHYEDETAGAIMTTEFVSIVANQTVRSAMYVLKNQADMAETIYYVYVVDQENHLVGVISLRDLIVNDDDTLIADILNERVISVHVGDDQEDVAQTIRDYDFLAVPVTDYDDHLLGIVTVDDIIDVIDDEAASDYSGLAGVDVEEVSENPLKAASK
  protein production: not failed

## MANHKPEIVITYCTQCQWLLRAAWLAQELLSTFADDLGRVALEPGTGGIFRITCNGVQIWERKADGGFPEAKVLKQRVRDQVDPQRDLGHNDR
  protein production: not failed

## MIEKIIDLSVKNKLLTTLVTLLIFLASLWAIKSVRLDALPDLSPAQVVVQITYPNQSPKIVQEQVTYPLVSTFMSIANIDTVRGISSYESGLIYIIFKDGVNLYWARDRVLEQLNRVSNLPKDAKVEIGSDSTSIGWAYQYALSSDSKNLSDLKVLQDFYYRYALLGVDGVSEVASVGGFVKDYEVTLQNDSLIRYNLSLEQVANAIKNSNNDTGGGVILENGFEKIIRSHGYIQSLKDLEEIVVKKEGAIPLKIKDIASVRLTPKPRRGAANLNGDKEVVGGIVMVRYHADTYKVLKAIKEKIATLQASNPDVKITSVYDRSELIEKGIDNLIHTLIEESVIVLVIIAIFLLHFRSALVVIITLPLSVCISFLLMRYFNIEASIMSLGGIAIAIGAMVDAAIVMVENAHKHLQHIDVKDNAQRVNGIIEGVKHVGGAIFFALMIIVVSFLPIFALTGQEEKLFAPLAYTKTFAMLVGALLSITMVPILMVWLIKGRILEESKNPINAFFMKIYGVSLNVVLKFRYAFLIASVLGLGGLYVAYKKLNWEFIPQINEGVVMYMPVTINGVSIDTALEYLKKSNSAIKRLDFVKQVFGKVGRANTSTDAAGLSMIETYIELKPQNEWKEKLSYKEVRDKLEKTLQLKGLTNSWTYPIRGRTDMLLTGIRTPLGIKLYGNDTDKLQELAILMEQQLKTLKESLSVFAERSNNGYYITLDLNDENLARYGINKKAVLDAIKFALGGATLTTMIKGVENYPISLRLEDTERNTIEKLKNLYIKTAYNYMPLRELARIYYDNSPAVLKSEKGLNVNFIYIVPQNGISSDAYRQLAQKALEKIQLPNGYYYEFSGESQYLEEAFKTLQYIVPVSVFIIFILIVFALKNLTNSLLCFFTLPFAFLGGLIFMNLMGFNMSVAALVGFLALLGVASETAIVMIIYLEDAFQKFIKTPLKEQNSTTLKEAIMHGAVLRVRPKLMTFFSILASLIPIMYSHGTGSEIMKSIAAPMLGGMISSVVLTLFIIPTAYFVIKNAGIKSNQT
  protein production: failed

## MDSSNYFYGGNNICIINTKWGKHSGIGGYAEIIDTLVGNFTNISSWAKIGIRDHIHTNFLICDFVYKDNDHIMPPGISSFEDYWVKIGNDVWVGTNVTILRGVEVGDGAVIAAGSVVTKSIPPYAIVGGNPAKFIKWRFPFEVREKLLEIKLEHHHHHH
  protein production: failed

## MDNDAAKKQLEFLKGGFKLLCQSGGAIFGDADFDGGNLEASEWIAMTEAQFLGGDYSEKDKLACVSGFFGGQAKFWFHKELSWIPFNSWSQVKDGLLLTFGNNRDKKRVLVELDLEMKHWIKDFDRKREPHKFLES
  protein production: failed

## MTLGLTPKFVKIFLFVGLMLLSTSLAVIFPLNSVEGLGSGVTKTVLDNGLTVLIKEIPTAPVVSLQVWYRVGSRHEPKGENGIAHQLEHLMFKGTQSRPVQFGQLFYALGSSSNAFTSYDMTAYHHTVRADQLEPLLILEADRLRHTLITPDALESEKRVVISELQGYENSPEYRLSRAVMAALYPKHPYGLPVGGTASDVEQLTLAAVKSFYQQYYRPDNAVVVIAGNVRAARALELVKSTFGAIPQPPEPLISPPLPPPGAVSGQRIRLREPGSAPLLQILVPIPGITHPDQAALDVLDMLLSGGRSSYFYQELMETGQASSAYSYVAALQEGGWFEMGAIASPDQSLETIEQSIGKMLQQLAERPLSLAELQRAKQQLKANFILRNRDIDAQASQLANDETLTGDYRFSDRHLAAIEKVTAADVQRVVQTYFGRDRWIVGEFIPSEFADVELSGRPAVQTTAHNLIGEPVDPQTIAAYLPQGSAQAAPAVKNNGVETFTLENGLRVLLLVDRSTPTVTLAGRIDAGTAYDLLTQPGVANLTAANLLNGTRTKTALTLAQTLEDRGISLEFSAFRDGVDVEGYALASELPTLLATLGEVLQEATFPEAEFKLSQQRYLTALGLEADDPVRWGRRVLQETLYPAHHPLHPFATPESVQAIQRQDLLNFYRAAYRPDRTILTLVGDFDPLAVRSRLKDIFGPWQPPTAPLSLTFPAVSPPPQTLFRNAVIAGKSQAITYLGTPGIDRRHPRFYAAMLMNHILGGDTLASRLGTEIRDRQGLTYGIYSFFTASRQAGPFMIQLQTAPEDTAKAIQATLQLLREARRQGFTAAELEAAKRSLSNTYLVELANVDVVARTLLANASVDLPPQELQQFSDRLQQVSLAEVNQALRELIDPERLVIVTAGPAVSFSP
  protein production: failed

## MINGNTSGLKEYILENLDKLYSTKIEKGKIINQEIVDYISEISNKINREINVAIDRNGNIIDISIGDSSTVNLPVIPVYDKKLSGVRIIHTHPSGNPHLSSVDISALIKLKLDCIVSIGVSEEGVTGYEVAICSIVNDELTYDRTLLENLDDFDYLEEIKEVEENLRKRNITEDDKEYALLIGIDKEEYLDELEELASACDVKVVGRFFQKRSKPDPLFLIGSGKIQELALTRQVRKVNLLIFDEELSGLQLKMIEEVTGCKVIDRTTLILEIFARRARTREAKLQVELAQLKYRSNRLIGFGVTMSRLGGGVGTKGPGEKKLEIDRRVIKKTIAYLNNELENIKKIRNTQRSKREDSGMPRVSLVGYTNVGKSTLRNVLVDMYQNDKTLKKEEVLSQDMLFATLDTTTRTIELKDKRIVSLTDTVGFIQKLPHDLVESFKSTLEEVIFSDLIIHVADISSKNVIEQIDAVEDVLEELNCLDKTKILLLNKIDNVTKDNSFPLMEKKIEEIKAKYSNYQILIISAKNRFNIDELMELIKKNLIVKTYNCKLLIPYVNTEIAARVHRNTIVKSESFVDEGIILEVVMNEKEYNKFKDFIFN
  protein production: failed

## NGYTMQRDNQKTLAVYMFEEINRDVEYLSGRLSEKELKDKYRYYGRGYVRITDKDGQVITYEDGSVQDKTVFLTNEGANKLGWKLEFLIDEKMFEEEILEKQN
  protein production: not failed

## MTGYGKTFALLGTCATLLGPPLSAQTGSVLSDLQNEEVQARYRAAAAERIACPRIEGDAALMAAFAKDAASKWDRAAMGCATEYGARAMEALSLPTNLIWAVATFRTDNIETHLQVLGAHLDYFEVLDKSYSAHYQGIEMATELGLRWEQARERSETLMTRIDPLVPKLTEARLLRAAYLLASTLRETPPEVQNTAVAAALEDLQIAIAENPEALDGLGPLLLGQVLAVLPEFLGGDILAAIDLLEQAHALNPTDLSVHHTLVEAYLGERETDKALALLRHAASIDPSTENPQDYADEMKYLGGLALRAGAPDLARQMAGHRSAILAAHPQLDPRKEMAALGHGGADPLTGKKPDDLN
  protein production: failed

## MKNRRTRWYRSLALRLLFIFWALLSVTAASGYLLAVWNKPKAELKPLEPEIYQTLQPLLSDALTFHSLQPGRLIAGDYRVAAQLSVQGSEKLLMDEMLRVSHGSTLLRMLGQESPQQIPLDERLLMGPFELDGNKILVTKPLGIEEQVDRERLEAESTRARILTLMVGSGLLAVLLGIWLIRPIRRMILAMREVADGSATPELKRLPKRGDEIGELARALSQGAVDLATSRDAQRRLLSDVSHELRSPMARMQVALDLADCNEDDPNWQQLRRDTERLSVIIERILSLSRLENGLVDLNHESLDSGELVQQLINDMCYQHPEVRERLLRHGSNWPVIDTDPELLRLVLENIVRNALHYTEDNVELSCDDYGKGCHIRIRDHGPGVDESTISKLFVPFYRGDPARHHKAGVGLGLALSHRAAAVLGGELKAHNHSEGGLEVVLDLPKSQPEQKE
  protein production: failed

## MSWACRPATAQRQAGRNGGAPTVQSRVPRRASPRTHHPFVRLVATTLRPVRPYSDLLQHRLLHPMHRFVIVGLGNFGASVAEALYSHGHDVIAVDVDEQAVDDIAPHCSRAAVGDGREAATLEEIGAEAADAAVVSTGDDITASILATMALQDLGVDVVYVKVISDNHARIMRQLGATEAVFPERDSAFNLASRISEKGVVNYVRMGRNLSVQELVVPEEWRGHTLRELDVRAEYGVSVVGIHETTIDDMIVPPNPDDTLRHTDTLILAGTDEAIEKVADLASATAEEAE
  protein production: failed

## MALANFIDRAATAASQVLADFHLEDFKAALEKQVVAVAFDDQAASCAEGQATLDLAVRLLARLYPVLAILPLGSAASFQAQALERLAKSINPKVGIRRSGKSATICVVAGVTRPPLRCPTFFMGSDGWAAKLSRTDPVGSGSSLLPYGAGAASCFGAANVFRTIFAAQLTGAELDETIDLSLYSYDKTKAGEAGPIDIPVDLGETHLVGLGAIGHGSLWALARQPGLTGRLHVIDHEAIELSNLQRYVLAGQAEIGMSKAVLAATALRSTAIGVEAHPLTWAEYVARHGDWVFDRVGVALDTAADRLAVQGALPRWIANAWTQEHDLGISRHGFDDGQACLCCMYLPSGKSKDEHHLIAEELGIPEAHEQVKTLLQTNAGVPNDFVVRVATAMAVPFEPLAPFVGQPLRSFYQQAICGGLVFQLSDGSRRVRTVVPMAFQSALAGIMLAAELVKHSAGFPVGPTTSTRVNLLRPLGSRLHDPKAKDSSGRCICSDDDFIAAYRRKYGKSIVQLSDVSAA
  protein production: failed

## AIAAELGLNEHHQNEVINYMRFARSKRGLRLKTVDSCFQDLKESRLVEDTFTIDEVSEVLNGLQAVVHSEVESELINTAYTNVLLLRQLFAQAEKWYLKLQTDISELENQELLEQVAEFEKAEITSSNKKPILDVTKPKLAPLNEGGTAELLNEEILRLQEENEKLKSRLKTIEIQATNALDEKSKLEKALQDLQLDQGNQKDFIKAQDLSNLENTVAALKSEFQKTLNDKTENQKSLEENLATAKHDLLRVREQLHMAEKELEKKFQQTAAYRNMKEILTKKNDQIKDLRKRLAQYEPED
  protein production: failed

## SLKLFLFEFATCGERIEDSTAVEGLAMFKSAFDGFKNYYEITGFVRPEFSCLFTLPVDSMDSMEKYLEKSDAFLIIAPEDDFLLYTLTKKAEKYCENLGSSSRAIAVTSDKWELYKKLRGEVQVPQTSLRPLDCKFIIKPRTACAGEGIGFSDEVPDGHIAQEFIEGINLSVSLAVGEDVKCLSVNEQIINNFRYAGAVVPARISDEVKREVVEEAVRAVECVEGLNGYVGVDIVYSDQPYVIEINARLTTPVVAFSRAYGASVADLLAGGEVKHVRRQMVRKSKSAEKPYVSVGDYTLEIIDLD
  protein production: not failed

## MLDNKDIATPSRTRALLDKYGFNFKKSLGQNFLIDVNIINNIIDASDIDAQTGVIEIGPGMGSLTEQLARHAKRVLAFEIDQRLIPVLNDTLSPYDNVTVINEDILKANIKEAVENHLQDCEKIMVVANLPYYITTPILLNLMQQDIPIDGYVVMMQKEVGERLNAEVGSKAYGSLSIVVQYYTETSKVLTVPKSVFMPPPNVDSIVVKLMQRTEPLVTVDNEEAFFKLAKAAFAQRRKTINNNYQNYFKDGKQHKEVILQWLEQAGIDPRRRGETLSIQDFAKLYEEKKKFPQLEN
  protein production: failed

## MEPLTALAQSLGLAFASGISAYAAAAFVGLAGHLGWIGPLPGALGVLTDPWVFGTAGALALVEALAMLVPGIATAWEAIHTAIRPFAAAALAVLATWGEPRLAVVAALLGGALGLATHATKLGLRATIDTSPEPVTNAAATTGELGVVAALAWAIWAHPWIALAAALVLLTALLYVVRALWRTVARAIAALFSPPTAPGS
  protein production: failed

## MVQTIIDPVILPFNGDDTKSSLLTGGDPPSAAELAAKTVEDQLPREANPTAPAVAPLSLSLEDLKAILATVTKDLSQRLTAGSTS
  protein production: failed

## MSIATTPLHTALSLPQIQSFAASDMAAIDTLIHDRLTSDIVLINQIADHIICSGGKRLRPMLTMLAGHAIGPTGPHHHQLAAIIEFIHTATLLHDDVVDGSELRRSRSTANALWGNAPSVLVGDFLYSRSFQLMTELANLEVMQILAETTNRISEGEVLQLLHVHNPDTDETTYLSVIERKTAILFAAAAQLGALASHADTQTQTRMYEYGMQLGYAFQITDDVLDYTANNSQLGKNLGDDLAEGKATLPVIHAMTHSDAATCERLRMIISKGDSDAMPEVLNAIRTTGSLDYSRQRASAYAATAERALDGLPETEAVAALRGLARYAVQRTY
  protein production: failed
